Measured values reported in patent publication US20210077638A1.

Columns and labels:
hMET.mmh (human) = hMET.mmh (human) (UniProt P08581); assay: SPR Biacore T-200, antibody captured by anti-human Fc, 90 nM hMET.mmh, 25 C (second run)
[1] = target: human MET on EBC-1, NCI-H441 and NCI-H358 cells (human) (UniProt P08581); assay: cell binding assay on EBC-1 cells, n=1, gamma counting

Row | Substance | Antigen Bound (hMET.mmh (human)) [RU/nm] | IR (%) (immunoreactivity, percent of activity bound to cells) [1]
1 | Non-binding isotype Control (antibody) | -1.46 | 
2 | non-specific DFO-Ab radioimmunoconjugate (antibody) |  | 2.8
